Molecular target: T1, CutR (Mycobacterium sp. strain JC1, UniProt D5G1X9 1-320)
T1 sequence: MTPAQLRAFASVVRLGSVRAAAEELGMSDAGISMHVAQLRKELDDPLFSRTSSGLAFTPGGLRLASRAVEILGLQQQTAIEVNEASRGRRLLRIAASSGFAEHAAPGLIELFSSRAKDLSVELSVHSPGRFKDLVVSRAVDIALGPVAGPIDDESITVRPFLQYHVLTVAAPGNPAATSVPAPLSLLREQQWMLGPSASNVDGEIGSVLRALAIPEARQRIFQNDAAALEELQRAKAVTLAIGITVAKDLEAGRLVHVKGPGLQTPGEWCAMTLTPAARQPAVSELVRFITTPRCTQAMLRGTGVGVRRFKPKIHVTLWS
Experiment: EMSA; no CO; 50 mM Tris-HCl pH 8.0, 100 mM NaCl, 40% glycerol, 5 mM DTT, 2 mM EDTA, 4 °C 1 h; 10% native PAGE in 0.5x TBE at 4 °C
Conditions: protein: recombinant; tags: C-terminal His6; chain copies: 2; label: 5'-biotin (forward strand); blunt

B1: IR2 (29 bp) (dsDNA)
DNA 1: GGGCCAGTTAAGCGATTCCTTAAGGGGGG
DNA 2: CCCCCCTTAAGGAATCGCTTAACTGGCCC
Q: Does B1 bind?
A: Result: binds

Reference: paper PMC12609908
